Laboratory results from patent US20260053904A1 (BIOATLA, published 2026).

Assays:
[1] = biological target: T1, recombinant human EpCAM extracellular domain (human, UniProt P16422 24-265); assay: ELISA on human EpCAM, pH range 5.0 to 7.4
T1 construct: extracellular domain; Plate-coated antigen of the ELISAs; also called human EpCAM ECD; recombinant EpCAM antigen
T1 sequence (looked up): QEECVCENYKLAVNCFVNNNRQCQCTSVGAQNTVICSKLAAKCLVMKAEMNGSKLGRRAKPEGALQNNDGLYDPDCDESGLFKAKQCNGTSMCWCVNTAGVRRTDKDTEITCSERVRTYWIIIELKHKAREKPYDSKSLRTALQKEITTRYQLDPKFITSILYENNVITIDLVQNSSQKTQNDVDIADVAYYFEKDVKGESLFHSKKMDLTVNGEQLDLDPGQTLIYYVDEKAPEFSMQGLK

[2] = biological target: T2, cyno EpCAM (recombinant, ELISA antigen) (cynomolgus monkey); assay: ELISA, cyno EpCAM, pH 7.4
T2 construct: extracellular domain; also called cynomolgus EpCAM extracellular domain
Method: (§1) The binding activities of the humanized conditionally active anti-EpCAM antibodies to cyno EpCAM were similarly measured. The EC50 for binding to the cyno EpCAM at pH 6.0 and pH 7.4 for the humanized conditionally active anti-EpCAM antibodies are summarized in Table 7.
(§2) The ELISA assay was performed using the following protocol: [0388] 1) Coat ELISA plates with 100 μL of 0.5 μg/mL (06_20_17 and 06_28_17 Experiments) or 1 μg/mL (07_06_17 and 07_11_17 Experiments) recombinant EpCAM antigen in carbonate-bicarbonate coating buffer [0389] 2) Cover plates with sealing film and incubate overnight at 4° C. [0390] 3) Decant plates and tap out residual liquid on a stack of paper towels [0391] […] 5) Add 200 μL of various pH incubation buffers to the wells according to the sample map.

[3] = biological target: T3, human EpCAM expressed on cells (CHO, Colo205, 293) (human, UniProt P16422 24-314); assay: FACS on 293 cells expressing human EpCAM, pH 6.0
T3 construct: whole, on cells; also called CHO cells expressing human EpCAM; Colo205 cells expressing human EpCAM
T3 sequence (looked up): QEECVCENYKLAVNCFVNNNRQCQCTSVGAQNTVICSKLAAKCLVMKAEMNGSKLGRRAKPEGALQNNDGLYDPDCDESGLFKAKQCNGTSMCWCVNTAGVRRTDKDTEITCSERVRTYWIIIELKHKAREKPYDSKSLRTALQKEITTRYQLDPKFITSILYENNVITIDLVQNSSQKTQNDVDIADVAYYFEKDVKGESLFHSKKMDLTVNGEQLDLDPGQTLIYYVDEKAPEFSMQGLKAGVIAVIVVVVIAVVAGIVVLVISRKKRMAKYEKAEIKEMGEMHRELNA
Method: (§3) A similar FACS analysis was also carried out using 293 cells expressing human EpCAM. […] The EC50 values for binding to the 293 cells expressing human EpCAM by the humanized conditionally active anti-EpCAM antibodies are summarized in Table 10.

[4] = biological target: T1, recombinant human EpCAM extracellular …; assay: ELISA, human EpCAM, pH 6.0
Method: (§4) The binding activities of the humanized conditionally active anti-EpCAM antibodies to human EpCAM were measured by ELISA, using the template antibody BAP-1-5-01-06, as a control. The EC50 values of the humanized conditionally active anti-EpCAM antibodies for binding to human EpCAM at pH 6.0 and pH 7.4 are summarized in Table 5.
as §2

[5] = biological target: T3, human EpCAM expressed on cells (CHO, …); assay: FACS on 293 cells expressing human EpCAM, pH 7.4
Method: as §3

[6] = biological target: T1, recombinant human EpCAM extracellular …; assay: ELISA with pH titration, human EpCAM
Method: The binding activities of the humanized conditionally active anti-EpCAM antibodies to human EpCAM with pH titration were also measured by ELISA.
as §2

[7] = biological target: T2, cyno EpCAM (recombinant, ELISA antigen); assay: ELISA with pH titration, cyno EpCAM
Method: The binding activities of the humanized conditionally active anti-EpCAM antibodies to cyno EpCAM with pH titration was similarly measured by ELISA.
as §2

[8] = biological target: T4, cyno EpCAM expressed on 293 cells (cynomolgus monkey); assay: FACS on 293 cells expressing cyno EpCAM, pH 7.4
T4 construct: whole, on cells; also called 293 cells expressing cyno EpCAM
Method: (§5) A similar FACS analysis was also carried out using 293 cells expressing cyno EpCAM. […] The EC50 values for binding to the 293 cells expressing cyno EpCAM by the humanized conditionally active anti-EpCAM antibodies are summarized in Table 11.

[9] = biological target: T2, cyno EpCAM (recombinant, ELISA antigen); assay: ELISA, cyno EpCAM, pH 6.0
Method: as §1, §2

[10] = biological target: T4, cyno EpCAM expressed on 293 cells; assay: FACS on 293 cells expressing cyno EpCAM, pH 6.0
Method: as §5

[11] = biological target: T3, human EpCAM expressed on cells (CHO, …); assay: FACS on Colo205 cells expressing human EpCAM, pH 6.0
Method: (§6) Binding activities of the humanized conditionally active anti-EpCAM antibodies to Colo205 cells expressing human EpCAM were measured by FACS at pH 6.0 and pH 7.4. […] The EC50 values for binding to the Colo205 cells expressing human EpCAM by the humanized conditionally active anti-EpCAM antibodies are summarized in Table 9.

[12] = biological target: T1, recombinant human EpCAM extracellular …; assay: ELISA, human EpCAM, pH 7.4
Method: as §4, §2

[13] = biological target: T3, human EpCAM expressed on cells (CHO, …); assay: FACS on Colo205 cells expressing human EpCAM, pH 7.4
Method: as §6

[14] = biological target: T3, human EpCAM expressed on cells (CHO, …); assay: cell-based or functional assay

T4 sequence (Q1WER1 24-314): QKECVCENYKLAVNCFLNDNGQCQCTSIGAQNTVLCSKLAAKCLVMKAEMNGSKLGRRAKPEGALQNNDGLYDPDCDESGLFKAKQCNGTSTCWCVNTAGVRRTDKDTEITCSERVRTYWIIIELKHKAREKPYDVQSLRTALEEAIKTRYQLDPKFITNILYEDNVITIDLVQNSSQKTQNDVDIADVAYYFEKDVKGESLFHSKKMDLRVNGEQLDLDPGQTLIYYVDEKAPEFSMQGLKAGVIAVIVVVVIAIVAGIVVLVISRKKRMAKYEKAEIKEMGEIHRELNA
T2 sequence (Q1WER1 24-265): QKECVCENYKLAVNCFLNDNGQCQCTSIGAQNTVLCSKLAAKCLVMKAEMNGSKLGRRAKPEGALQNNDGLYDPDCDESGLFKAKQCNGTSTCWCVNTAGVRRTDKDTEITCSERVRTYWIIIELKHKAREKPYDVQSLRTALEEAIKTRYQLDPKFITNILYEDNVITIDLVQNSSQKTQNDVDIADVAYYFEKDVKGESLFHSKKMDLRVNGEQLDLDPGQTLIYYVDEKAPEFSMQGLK

| Binder | binding result [1] | EC50 [2] | EC50 [3] | EC50 [4] | EC50 [5] | pH inflection point [6] | pH inflection point [7] | EC50 [8] | EC50 [9] | EC50 [10] | EC50 [11] | EC50 [12] | EC50 [13] | IC50 for the in vitro killing of Colo205 cells, pH6.0 [14] | IC50 for the in vitro killing of Colo205 cells, pH7.4 [14] | ratio (pH7.4/pH6.0) of the IC50 for the in vitro killing of Colo205 cells [14] |
| --- | --- | --- | --- | --- | --- | --- | --- | --- | --- | --- | --- | --- | --- | --- | --- | --- |
| BAP-105-01-02 (antibody, V domains shown) VH: QVQLQQSGAELAKPGASVKVSCKASGYTFTSYWMHWVKQRPGQGLEWIGDIRPSTGYTEYNQKFKDKATLTADKSSSTAYMQLSSLTFEDSAVYYCGRGDNWVGFANWGQGTLVTVSA VL: QIVLTQSPAIMSASLGEEIALTCSASSSISYMHWYQQKSGTSPKLLIYSTSNLASGVPSRFSGSGSGTFYSLTISSVEAEDAADYFCHQWSTYHTFGSGTKLEIK | binds | – | – | – | – | – | – | – | – | – | – | – | – | – | – | – |
| BAP-105-01-05 (antibody, V domains shown) VH: QVQLQQSGAELAKPGASVKVSCKASGYTFTSYWMHWVKQRPGQGLEWIGYIRPSTGYTEYNQKFKDKATLTADKSSSTAYMQLSSLTFEDSAVYYCGRGDNWVGFANWGQGTLVTVSA VL: QIVLTQSPAIMSASLGEEIALTCSASSSISYMHWYQQKSGTSPKLLIYSTSNLASGVPSRFSGSGSGTFYSLTISSVEAEDAADYFCEQWSTYHTFGSGTKLEIK | binds | – | – | – | – | – | – | – | – | – | – | – | – | – | – | – |
| BAP-105-01-04 (antibody, V domains shown) VH: QVQLQQSGAELAKPGASVKVSCKASGYTFTSYWMHWVKQRPGQGLEWIGYIRPSTGYTEYNQKFKDKATLTADKSSSTAYMQLSSLTFEDSAVYYCGRGDNWVGFANWGQGTLVTVSA VL: QIVLTQSPAIMSASLGEEIALTCSASSSISYMHWYQQKSGTSPKLLIYSTSNLHSGVPSRFSGSGSGTFYSLTISSVEAEDAADYFCHQWSTYHTFGSGTKLEIK | binds | – | – | – | – | – | – | – | – | – | – | – | – | – | – | – |
| BAP-105.4-03-02 (antibody, V domains shown, Humanized) VH: EVQLVQSGAEVKKPGESLRISCKGSGYTFTSYWMHWIRQSPSRGLEWLGYIRPSTGYTEYNQKFKDRVTISADKSISTAYLQWSSLKASDTAMYYCGRGDNWVGFANWGQGTLVTVSS VL: EIVMTQSPATLSVSPGERATLSCSASSSISYMHWYQQKPGKAPKLLIYSTSNLASGIPPRFSGSGYGTDFTLTINNIESEDAAYYFCHQWSTYETFGQGTKVEIK | – | 0.105 µg/mL | 0.118 µg/mL | 0.0191 µg/mL | 0.159 µg/mL | 6.82 pH | 6.35 pH | 4.46 µg/mL | 0.084 µg/mL | 1.42 µg/mL | 0.497 µg/mL | 0.0487 µg/mL | 0.67 µg/mL | – | – | – |
| BAP-105-06-01 conjugated to MMAE (antibody, V domains shown, antibody conjugated to MMAE; chain and residues of attachment not stated) VH: EVQLVQSGAEVKKPGATVKISCKVSGYTFTSYWMHWIRQPPGKGLEWIGYIRPSTGYTEYNQKFKDRFTISRDNSKNTLYLQMNSLRAEDTAVYYCGRGDNWVGFANWGQGTLVTVSS VL: EIVLTQSPDFQSVTPKEKVTITCSASSSISYMHWYQQKPGKAPKLLIYSTSKLASGVPDRFSGSGSGTDFTLKISRVEAEDVGVYYCHQWSTYETFGQGTKVEIK | – | – | – | – | – | – | – | – | – | – | – | – | – | 101 ng/mL | 550 ng/mL | 5.47 |
| BAP-105-06-02 conjugated to MMAE (antibody, V domains shown, antibody conjugated to MMAE; chain and residues of attachment not stated) VH: EVQLVQSGAEVKKPGATVKISCKVSGYTFTSYWMHWIRQPPGKGLEWIGYIRPSTGYTEYNQKFKDRFTISRDNSKNTLYLQMNSLRAEDTAVYYCGRGDNWVGFANWGQGTLVTVSS VL: EIVLTQSPDFQSVTPKEKVTITCSASSSISYMHWYQQKPGKAPKLLIYSTSSLASGVPDRFSGSGSGTDFTLKISRVEAEDVGVYYCHQWSTYETFGQGTKVEIK | – | – | – | – | – | – | – | – | – | – | – | – | – | 146 ng/mL | 708 ng/mL | 4.86 |
| BAP-105.4-01-02 (antibody, V domains shown, Humanized) VH: EVQLVQSGAEVKKPGESLRISCKGSGYTFTSYWMHWIRQSPSRGLEWLGYIRPSTGYTEYNQKFKDRVTISADKSISTAYLQWSSLKASDTAMYYCGRGDNWVGFANWGQGTLVTVSS VL: EIVLTQSPDFQSVTPKEKVTITCSASSSISYMHWYQQKPGKAPKLLIYSTSNLASGVPDRFSGSGSGTDFTLKISRVEAEDVGVYYCHQWSTYETFGQGTKVEIK | – | 0.208 µg/mL | 0.116 µg/mL | 0.0147 µg/mL | 0.174 µg/mL | 6.87 pH | 6.27 pH | 6.36 µg/mL | 0.194 µg/mL | 1.26 µg/mL | 0.273 µg/mL | 0.066 µg/mL | 0.397 µg/mL | – | – | – |
| BAP-105.4-02-01 (antibody, V domains shown, Humanized) VH: EVQLVQSGAEVKKPGATVKISCKVSGYTFTSYWMHWVRQAPGQGLEWMGYIRPSTGYTEYNQKFKDRFTISRDNSKNTLYLQMNSLRAEDTAVYYCGRGDNWVGFANWGQGTLVTVSS VL: EIVMTQSPATLSVSPGERATLSCSASSSISYMHWYQQKPGKAPKLLIYSTSNLASGVPSRFSGSGSGTEFTLTISSLQPDDFATYYCHQWSTYETFGQGTKVEIK | – | 0.0359 µg/mL | 0.215 µg/mL | 0.0154 µg/mL | 0.238 µg/mL | 6.6 pH | 6.17 pH | 14.1 µg/mL | 0.674 µg/mL | 2.42 µg/mL | 0.321 µg/mL | 114 µg/mL | 0.652 µg/mL | – | – | – |
